How the values were obtained:
[1] = target: T1, SARS-CoV-2 RBD (recombinant receptor binding domain of Spike) (SARS-CoV-2, UniProt P0DTC2); assay: ELISA; settings: both partners purified
[2] = target: RpYN06 Spike, full-length, on the cell surface (Betacoronavirus sp. RpYN06, strain …, strain); assay: flow cytometry on cells; settings: one partner purified
[3] = target: T1, SARS-CoV-2 RBD (recombinant receptor …); assay: SPR; settings: both partners purified

B1: V1WT_41 IgG (antibody, V domains shown)
VH: QVQLQESGPGLVKPSETVSVTCTVSGGSITRSNYYWGWIRQPPGKGLEWIGSIFYNGNTNYNPSLKSRLTISVDTSKNQFSLKLSSVTAADTAVYYCARTAPYYYDRSGYYQKEEYFQRWGQGTLVTVSS
VL: EIVMTQSPSTLSASVGDRVTITCRASQSISTWLAWYQQKPGKAPNLLIYQASSLESGVPSRFSGSGSGTEFTLTISSLQPDDFATYYCQQYNNYPRTFGQGTKLEIK
notes: copies: 2 + 2
binding result [1]: binds | binding result [2]: binds

B2: VA14_26 IgG (antibody, V domains shown)
VH: QVQLQQWGAGLLKPSDTLSLTCGISGGPFSGYYWSWIRQPPGKGLEWLGEINHSGITTYNPSLKSRGTISVDTSKRQISLKLASVTAADTAVYYCARFAYGDYGWDYSSDMDVWGKGTTVTVSS
VL: DIQLTQSPSTLSASVGDRVTITCRASQSISTWLAWHQQIPGKAPKLLIYRASTLQSGVPSRFSGSGSGTEFTLTISSLQPDDFATYYCQQYYSVRTFGQGTKVDIK
notes: copies: 2 + 2
binding result [3]: binds | binding result [2]: binds

B3: V1WT_06 IgG (antibody, V domains shown)
VH: EVQLVQSGAEVKKPGASVKVSCKASGYTFSSHGISWVRQAPGQGLEWMGWISTYNGNTNSAQNLQGRVTMTADTSTSTAYMELRSLRSDDTAVYYCARGPWGYCSGTSCYYWTPDNPAYSYHGMDVWGQGTTVTVSS
VL: not shown
notes: copies: 2 + 2
binding result [2]: binds

B4: V1WT_06 Fab (Fab, V domains shown)
VH: EVQLVQSGAEVKKPGASVKVSCKASGYTFSSHGISWVRQAPGQGLEWMGWISTYNGNTNSAQNLQGRVTMTADTSTSTAYMELRSLRSDDTAVYYCARGPWGYCSGTSCYYWTPDNPAYSYHGMDVWGQGTTVTVSS
VL: not shown
binding result [1]: binds
